In patent US20230279406A1:
Blank lines part the entries; values can stand above or below the binder they belong to.

How the values were obtained:
Assay in all cases: cell-based or functional assay
[1] = biological target: T1, CD374 PV1-RfxCas13d-560C-NLS-BGHpA
T1 sequence: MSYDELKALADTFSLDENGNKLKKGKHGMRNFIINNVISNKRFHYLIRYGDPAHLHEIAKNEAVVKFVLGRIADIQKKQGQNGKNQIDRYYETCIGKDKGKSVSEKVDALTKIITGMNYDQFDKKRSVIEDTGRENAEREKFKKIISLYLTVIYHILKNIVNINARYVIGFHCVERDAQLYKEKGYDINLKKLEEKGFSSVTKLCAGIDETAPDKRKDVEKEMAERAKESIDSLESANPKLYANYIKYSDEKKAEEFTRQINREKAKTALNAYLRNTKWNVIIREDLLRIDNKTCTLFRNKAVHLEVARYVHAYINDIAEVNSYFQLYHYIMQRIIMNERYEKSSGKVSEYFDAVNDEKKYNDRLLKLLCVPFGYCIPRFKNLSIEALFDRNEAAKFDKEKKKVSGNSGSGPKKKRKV

[2] = biological target: T2, CD246 PV1-GAI-L1-RfxCas13d-566C-NLS-BGHpA
T2 sequence: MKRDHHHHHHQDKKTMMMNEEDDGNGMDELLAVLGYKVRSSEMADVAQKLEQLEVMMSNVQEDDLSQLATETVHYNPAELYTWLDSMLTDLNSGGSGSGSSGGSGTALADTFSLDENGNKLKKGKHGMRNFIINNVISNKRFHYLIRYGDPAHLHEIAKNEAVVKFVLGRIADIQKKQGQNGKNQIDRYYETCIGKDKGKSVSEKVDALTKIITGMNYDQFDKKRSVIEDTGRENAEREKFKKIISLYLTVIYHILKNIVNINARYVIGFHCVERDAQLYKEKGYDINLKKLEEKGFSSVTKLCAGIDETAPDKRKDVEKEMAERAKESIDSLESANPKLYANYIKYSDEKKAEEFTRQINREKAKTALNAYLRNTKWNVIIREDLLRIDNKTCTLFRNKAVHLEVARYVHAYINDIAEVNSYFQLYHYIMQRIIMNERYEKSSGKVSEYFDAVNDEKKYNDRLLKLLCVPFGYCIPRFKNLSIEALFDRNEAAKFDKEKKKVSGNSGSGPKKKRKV

[3] = biological target: T3, CD244 PV1-GAI-L1-RfxCas13d-560C-NLS-BGHpA
T3 sequence: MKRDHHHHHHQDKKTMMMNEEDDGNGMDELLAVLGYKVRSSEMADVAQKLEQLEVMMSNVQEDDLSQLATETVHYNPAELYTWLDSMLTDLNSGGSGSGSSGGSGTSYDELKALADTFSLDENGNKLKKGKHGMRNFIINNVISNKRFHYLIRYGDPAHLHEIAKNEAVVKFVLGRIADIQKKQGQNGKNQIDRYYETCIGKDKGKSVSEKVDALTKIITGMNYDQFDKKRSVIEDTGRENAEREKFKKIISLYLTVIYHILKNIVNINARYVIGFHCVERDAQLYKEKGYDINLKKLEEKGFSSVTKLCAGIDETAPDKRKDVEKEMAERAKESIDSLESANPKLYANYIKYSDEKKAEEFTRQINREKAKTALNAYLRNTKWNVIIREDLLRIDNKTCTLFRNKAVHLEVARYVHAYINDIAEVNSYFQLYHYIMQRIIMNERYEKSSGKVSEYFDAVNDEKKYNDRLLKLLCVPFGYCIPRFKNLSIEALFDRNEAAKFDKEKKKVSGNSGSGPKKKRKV

[4] = biological target: CD92 PV1-CaffVHH-L1-iCre-271C-NLS-BGHpA
Sequence of CD92 PV1-CaffVHH-L1-iCre-271C-NLS-BGHpA (chain, as listed by the source): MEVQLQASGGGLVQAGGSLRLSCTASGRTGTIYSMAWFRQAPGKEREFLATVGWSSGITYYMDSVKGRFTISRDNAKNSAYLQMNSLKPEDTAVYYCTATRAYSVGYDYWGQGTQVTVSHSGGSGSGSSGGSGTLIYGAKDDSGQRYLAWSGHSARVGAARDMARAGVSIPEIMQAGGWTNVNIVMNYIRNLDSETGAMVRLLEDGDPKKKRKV

[5] = biological target: T4, CD400 PV1-GAI-L1-RfxCas13d-264C-NLS-BGHpA
T4 sequence: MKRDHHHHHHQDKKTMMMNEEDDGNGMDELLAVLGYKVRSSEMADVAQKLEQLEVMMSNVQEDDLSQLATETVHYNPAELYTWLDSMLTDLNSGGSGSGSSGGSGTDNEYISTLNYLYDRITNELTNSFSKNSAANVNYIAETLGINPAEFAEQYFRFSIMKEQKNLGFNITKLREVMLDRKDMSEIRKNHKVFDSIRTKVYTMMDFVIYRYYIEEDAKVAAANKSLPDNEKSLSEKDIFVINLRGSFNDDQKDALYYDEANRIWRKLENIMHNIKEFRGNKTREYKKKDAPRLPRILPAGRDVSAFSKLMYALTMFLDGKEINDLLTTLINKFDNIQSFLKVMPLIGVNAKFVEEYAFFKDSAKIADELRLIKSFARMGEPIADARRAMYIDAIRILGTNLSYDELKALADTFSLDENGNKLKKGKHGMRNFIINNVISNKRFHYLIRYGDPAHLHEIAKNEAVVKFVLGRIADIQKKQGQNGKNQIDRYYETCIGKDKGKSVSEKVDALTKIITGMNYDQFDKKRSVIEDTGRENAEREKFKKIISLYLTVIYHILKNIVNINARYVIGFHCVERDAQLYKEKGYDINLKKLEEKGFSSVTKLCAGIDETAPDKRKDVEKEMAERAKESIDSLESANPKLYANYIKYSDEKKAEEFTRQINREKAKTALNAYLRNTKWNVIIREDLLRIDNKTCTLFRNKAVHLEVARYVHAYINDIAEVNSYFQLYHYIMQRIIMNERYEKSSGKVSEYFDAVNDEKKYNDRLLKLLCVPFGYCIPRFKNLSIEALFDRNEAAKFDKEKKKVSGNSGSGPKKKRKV

- gRNA induced mCherry knockdown efficiency, no CID domain [1]: < 80%
B1: CD373 PV1-RfxCas13d-N559-NLS-BGHpA (protein)
chain: MIEKKKSFAKGMGVKSTLVSGSKVYMTTFAEGSDARLEKIVEGDSIRSVNEGEAFSAEMADKNAGYKIGNAKFSHPKGYAVVANNPLYTGPVQQDMLGLKETLEKRYFGESADGNDNICIQVIHNILDIEKILAEYITNAAYAVNNISGLDKDIIGFGKFSTVYTYDEFKDPEHHRAAFNNNDKLINAIKAQYDEFDNFLDNPRLGYFGQAFFSKEGRNYIINYGNECYDILALLSGLRHWVVHNNEEESRISRTWLYNLDKNLDNEYISTLNYLYDRITNELTNSFSKNSAANVNYIAETLGINPAEFAEQYFRFSIMKEQKNLGFNITKLREVMLDRKDMSEIRKNHKVFDSIRTKVYTMMDFVIYRYYIEEDAKVAAANKSLPDNEKSLSEKDIFVINLRGSFNDDQKDALYYDEANRIWRKLENIMHNIKEFRGNKTREYKKKDAPRLPRILPAGRDVSAFSKLMYALTMFLDGKEINDLLTTLINKFDNIQSFLKVMPLIGVNAKFVEEYAFFKDSAKIADELRLIKSFARMGEPIADARRAMYIDAIRILGTNLPKKKRKV

- mCherry knockdown with gRNA and gibberellin (drug-induced) [2]: > 75%
- mCherry knockdown with gRNA, without gibberellin (basal) [2]: 10 to 20%
B2: CD245 PV1-RfxCas13d-N565-L1-GID-NLS-BGHpA (protein)
chain: MIEKKKSFAKGMGVKSTLVSGSKVYMTTFAEGSDARLEKIVEGDSIRSVNEGEAFSAEMADKNAGYKIGNAKFSHPKGYAVVANNPLYTGPVQQDMLGLKETLEKRYFGESADGNDNICIQVIHNILDIEKILAEYITNAAYAVNNISGLDKDIIGFGKFSTVYTYDEFKDPEHHRAAFNNNDKLINAIKAQYDEFDNFLDNPRLGYFGQAFFSKEGRNYIINYGNECYDILALLSGLRHWVVHNNEEESRISRTWLYNLDKNLDNEYISTLNYLYDRITNELTNSFSKNSAANVNYIAETLGINPAEFAEQYFRFSIMKEQKNLGFNITKLREVMLDRKDMSEIRKNHKVFDSIRTKVYTMMDFVIYRYYIEEDAKVAAANKSLPDNEKSLSEKDIFVINLRGSFNDDQKDALYYDEANRIWRKLENIMHNIKEFRGNKTREYKKKDAPRLPRILPAGRDVSAFSKLMYALTMFLDGKEINDLLTTLINKFDNIQSFLKVMPLIGVNAKFVEEYAFFKDSAKIADELRLIKSFARMGEPIADARRAMYIDAIRILGTNLSYDELKSGGSGSGSSGGSGTMAASDEVNLIESRTVVPLNTWVLISNFKVAYNILRRPDGTFNRHLAEYLDRKVTANANPVDGVFSFDVLIDRRINLLSRVYRPAYADQEQPPSILDLEKPVDGDIVPVILFFHGGSFAHSSANSAIYDTLCRRLVGLCKCVVVSVNYRRAPENPYPCAYDDGWIALNWVNSRSWLKSKKDSKVHIFLAGDSSGGNIAHNVALRAGESGIDVLGNILLNPMFGGNERTESEKSLDGKYFVTVRDRDWYWKAFLPEGEDREHPACNPFSPRGKSLEGVSFPKSLVVVAGLDLIRDWQLAYAEGLKKAGQEVKLMHLEKATVGFYLLPNNNHFHNVMDEISAFVNAECPKKKRKV

- mCherry knockdown with gRNA and gibberellin (drug-induced) [3]: > 75%
- mCherry knockdown with gRNA, without gibberellin (basal) [3]: 10 to 20%
B3: CD243 PV1-RfxCas13d-N559-L1-GID-NLS-BGHpA (protein)
chain: MIEKKKSFAKGMGVKSTLVSGSKVYMTTFAEGSDARLEKIVEGDSIRSVNEGEAFSAEMADKNAGYKIGNAKFSHPKGYAVVANNPLYTGPVQQDMLGLKETLEKRYFGESADGNDNICIQVIHNILDIEKILAEYITNAAYAVNNISGLDKDIIGFGKFSTVYTYDEFKDPEHHRAAFNNNDKLINAIKAQYDEFDNFLDNPRLGYFGQAFFSKEGRNYIINYGNECYDILALLSGLRHWVVHNNEEESRISRTWLYNLDKNLDNEYISTLNYLYDRITNELTNSFSKNSAANVNYIAETLGINPAEFAEQYFRFSIMKEQKNLGFNITKLREVMLDRKDMSEIRKNHKVFDSIRTKVYTMMDFVIYRYYIEEDAKVAAANKSLPDNEKSLSEKDIFVINLRGSFNDDQKDALYYDEANRIWRKLENIMHNIKEFRGNKTREYKKKDAPRLPRILPAGRDVSAFSKLMYALTMFLDGKEINDLLTTLINKFDNIQSFLKVMPLIGVNAKFVEEYAFFKDSAKIADELRLIKSFARMGEPIADARRAMYIDAIRILGTNLSGGSGSGSSGGSGTMAASDEVNLIESRTVVPLNTWVLISNFKVAYNILRRPDGTFNRHLAEYLDRKVTANANPVDGVFSFDVLIDRRINLLSRVYRPAYADQEQPPSILDLEKPVDGDIVPVILFFHGGSFAHSSANSAIYDTLCRRLVGLCKCVVVSVNYRRAPENPYPCAYDDGWIALNWVNSRSWLKSKKDSKVHIFLAGDSSGGNIAHNVALRAGESGIDVLGNILLNPMFGGNERTESEKSLDGKYFVTVRDRDWYWKAFLPEGEDREHPACNPFSPRGKSLEGVSFPKSLVVVAGLDLIRDWQLAYAEGLKKAGQEVKLMHLEKATVGFYLLPNNNHFHNVMDEISAFVNAECPKKKRKV

- Cre reporter expression (share of transfected cells), 25 uM caffeine for 5 hours (% of transfected cells) [4]: 30
- Cre reporter turned on (share of transfected cells), caffeine at least 50 uM, induction at least 5 hours (% transfected cells) [4]: 38
- Cre reporter turned on (share of transfected cells), caffeine induction, 48 hours (% transfected cells) [4]: > 80
B4: CD91 PV1-iCre-N270-L1-CaffVHH-NLS-BGHpA (protein)
chain: MSNLLTVHQNLPALPVDATSDEVRKNLMDMFRDRQAFSEHTWKMLLSVCRSWAAWCKLNNRKWFPAEPEDVRDYLLYLQARGLAVKTIQQHLGQLNMLHRRSGLPRPSDSNAVSLVMRRIRKENVDAGERAKQALAFERTDFDQVRSLMENSDRCQDIRNLAFLGIAYNTLLRIAEIARIRVKDISRTDGGRMLIHIGRTKTLVSTAGVEKALSLGVTKLVERWISVSGVADDPNNYLFCRVRKNGVAAPSATSQLSTRALEGIFEATHRSGGSGSGSSGGSGTMEVQLQASGGGLVQAGGSLRLSCTASGRTGTIYSMAWFRQAPGKEREFLATVGWSSGITYYMDSVKGRFTISRDNAKNSAYLQMNSLKPEDTAVYYCTATRAYSVGYDYWGQGTQVTVSHPKKKRKV

- mCherry knockdown efficiency with GIB CID domains [5]: > 60%
B5: CD399 PV1-RfxCas13d-N263-L1-GID-NLS-BGHpA (protein)
chain: MIEKKKSFAKGMGVKSTLVSGSKVYMTTFAEGSDARLEKIVEGDSIRSVNEGEAFSAEMADKNAGYKIGNAKFSHPKGYAVVANNPLYTGPVQQDMLGLKETLEKRYFGESADGNDNICIQVIHNILDIEKILAEYITNAAYAVNNISGLDKDIIGFGKFSTVYTYDEFKDPEHHRAAFNNNDKLINAIKAQYDEFDNFLDNPRLGYFGQAFFSKEGRNYIINYGNECYDILALLSGLRHWVVHNNEEESRISRTWLYNLDKNLSGGSGSGSSGGSGTMAASDEVNLIESRTVVPLNTWVLISNFKVAYNILRRPDGTFNRHLAEYLDRKVTANANPVDGVFSFDVLIDRRINLLSRVYRPAYADQEQPPSILDLEKPVDGDIVPVILFFHGGSFAHSSANSAIYDTLCRRLVGLCKCVVVSVNYRRAPENPYPCAYDDGWIALNWVNSRSWLKSKKDSKVHIFLAGDSSGGNIAHNVALRAGESGIDVLGNILLNPMFGGNERTESEKSLDGKYFVTVRDRDWYWKAFLPEGEDREHPACNPFSPRGKSLEGVSFPKSLVVVAGLDLIRDWQLAYAEGLKKAGQEVKLMHLEKATVGFYLLPNNNHFHNVMDEISAFVNAECPKKKRKV
